The record followed here is PMC10228794.

The experiment has as its target 10.17DT SOSIP. The experiment in a line: SPR. To be noted: mutated DH270 UCA antibodies were injected at 100nM; 3000–4000 RUs of 10.17DT on the sensor chip; parent: est. 43; read off a plot.
Consider “DH270 UCA IgG (unmutated common ancestor of bnAb DH270.6) I102D”, for which the response is 6.5 RU. Turning to “DH270 UCA IgG (unmutated common ancestor of bnAb DH270.6) I102L”, the response was determined as 29 RU. Take “DH270 UCA IgG (unmutated common ancestor of bnAb DH270.6) I102N”: the response came out at 43 RU. The same measure for “DH270 UCA IgG (unmutated common ancestor of bnAb DH270.6) I102S”: 34 RU; for “DH270 UCA IgG (unmutated common ancestor of bnAb DH270.6) I102V”: 54 RU. Consider “DH270 UCA IgG (unmutated common ancestor of bnAb DH270.6) W101F”, for which the response came to 36 RU. In the case of “DH270 UCA IgG (unmutated common ancestor of bnAb DH270.6) W101G”, the response came to 3.5 RU. The same measure for “DH270 UCA IgG (unmutated common ancestor of bnAb DH270.6) W101R”: 0 RU; for “DH270 UCA IgG (unmutated common ancestor of bnAb DH270.6) W101Y”: 15 RU; for “DH270 UCA IgG (unmutated common ancestor of bnAb DH270.6) Y111F”: 38 RU.

Regarding “DH270 UCA IgG (unmutated common ancestor of bnAb DH270.6) Y111H”, the response worked out at 25 RU. The same measure for “DH270 UCA IgG (unmutated common ancestor of bnAb DH270.6) Y111N”: 0 RU. The same measure for “DH270 UCA IgG (unmutated common ancestor of bnAb DH270.6) Y111W”: 26 RU.
